Assay results from paper PMC12598741 (2025).

What was measured:
Assay in all cases: BLI
[1] = molecular target: L15
[2] = molecular target: h11A4 x L15-3 hIgG4
[3] = molecular target: h11A4 x L15-2 hIgG4
[4] = molecular target: h11A4 x L15-5 hIgG4
[5] = molecular target: h11A4 x L15-1 hIgG4
[6] = molecular target: h11A4 x L15-4 hIgG4
[7] = molecular target: 17C7 x L15 hIgG4

B1: mouse CD16 (mCD16), his-tagged (receptor)
chain: ALPKAVVKLDPPWIQVLKEDMVTLMCEGTHNPGNSSTQWFHNGRSIRSQVQASYTFKATVNDSGEYRCQMEQTRLSDPVDLGVISDWLLLQTPQRVFLEGETITLRCHSWRNKLLNRISFFHNEKSVRYHHYKSNFSIPKANHSHSGDYYCKGSLGSTQHQSKPVTITVQDPATTSSISLVWYHT
Q: Which results are given for B1?
A: Kd [1]: 126 nM; Kd [2]: 218 nM; Kd [3]: 119 nM; Kd [4]: 197 nM; Kd [5]: 163 nM; Kd [6]: 211 nM; Kd [7]: 16.3 nM
